Assay results reported in paper PMC12624140, “A conserved chronobiological complex times C. elegans development” (The EMBO Journal, 2025).

T1: human CK1δ kinase domain (CK1δ ΔC, residues 1–317) (human, UniProt P48730 1-317)
T1 construct: N-terminal vector artifact left after TEV cleavage; human casein kinase 1 delta, catalytic domain, residues 1-317; also called CK1δ∆C; source: E. coli Rosetta (DE3), purified (Ni-NTA, TEV cleavage, GST column, SEC); not shown: His-GST, N-terminal, cleaved
T1 sequence: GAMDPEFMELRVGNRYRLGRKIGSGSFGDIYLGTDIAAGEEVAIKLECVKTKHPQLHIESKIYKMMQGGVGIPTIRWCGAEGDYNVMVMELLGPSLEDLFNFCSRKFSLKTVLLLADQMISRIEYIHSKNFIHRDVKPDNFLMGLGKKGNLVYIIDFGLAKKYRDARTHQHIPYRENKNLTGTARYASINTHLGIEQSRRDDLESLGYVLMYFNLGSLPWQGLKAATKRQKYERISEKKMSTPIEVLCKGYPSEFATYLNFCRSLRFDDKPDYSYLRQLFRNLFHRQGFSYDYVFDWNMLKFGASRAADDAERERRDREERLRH

T2: biotinylated human CK1δ kinase domain (CK1δ ΔC, residues 1–317) (human, UniProt P48730 1-317, biotin on the N-terminus (Sortase A reaction of biotin-LPETGG with the N-terminal G of GAMDPEF))
T2 construct: N-terminal vector artifact left after TEV cleavage; its first G is joined to the sortase peptide; human casein kinase 1 delta, catalytic domain, residues 1-317; After the sortase reaction the N-terminus should read biotin-LPET-GAMDPEF-; also called biotinylated CK1; not shown: His-GST, N-terminal, cleaved; biotin-LPETGG sortase peptide, N-terminal, kept
T2 sequence: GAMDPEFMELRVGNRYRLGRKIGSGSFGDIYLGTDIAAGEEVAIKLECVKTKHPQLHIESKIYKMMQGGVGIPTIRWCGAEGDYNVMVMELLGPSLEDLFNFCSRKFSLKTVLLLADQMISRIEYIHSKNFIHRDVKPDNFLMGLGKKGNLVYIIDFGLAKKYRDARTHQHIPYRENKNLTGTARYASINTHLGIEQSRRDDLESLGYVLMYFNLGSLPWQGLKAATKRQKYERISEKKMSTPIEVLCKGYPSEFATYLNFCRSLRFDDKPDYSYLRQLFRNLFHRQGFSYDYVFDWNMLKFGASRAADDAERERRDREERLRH


How the values were obtained:
[1] = target: T1, human CK1δ kinase domain (CK1δ ΔC, …); experiment: pull-down; magnetic streptavidin beads hold biotinylated LIN-42 CK1BD + Tail WT or mutants (5 µM), with and without CK1δ ΔC (5 µM); settings: both partners purified
[2] = target: T2, biotinylated human CK1δ kinase domain …; experiment: BLI; biotinylated CK1δ ΔC immobilised on streptavidin biosensors, LIN-42 fragments titrated; SEC buffer (50 mM Tris pH 7.5, 200 mM NaCl, 1 mM EDTA, 5% glycerol, 1 mM TCEP, 0.05% Tween-20) with 7.5 mM BSA as printed; Octet-RED96e; kinetic analysis, 2:1 heterogeneous ligand binding model, global fit; settings: both partners purified

Binder	binding result [1]	Kd [2] [nM]
biotinylated LIN-42 CK1BD + Tail (residues 402–598), wild type (domain or fragment, C. elegans, biotin on the N-terminus (Sortase A reaction of biotin-LPETGG with the N-terminal G of GAMDPEF), N-terminal vector artifact left after TEV cleavage; its first G is joined to the sortase peptide; LIN-42, C. elegans, residues 402-598 (CK1BD and C-terminal tail); After the sortase reaction the N-terminus should read biotin-LPET-GAMDPEF-; also called biotinylated LIN-42 CK1BD + Tail WT; wild-type LIN-42 protein; not shown: His-NusA, N-terminal, cleaved; biotin-LPETGG sortase peptide, N-terminal, …) GAMDPEFLSYTQINCLENVHRLLKSQSRPESPAKQDEPFDEKKYPPQTPLTREALTLHTKRFEDEYKDTWCRRLKRLSDDVPSSPPAKRTTPIHWTSSSQNHYRTMAPAPPPPPGKNYQITYTPLDDLTDQKSTNTKSDVENVAYPISGSKFSTPMRLSIDGLLPRGATSTGGASPTSGTNSPPVFPKTSSSSSLLMLRDSQN	binds	–
LIN-42 CK1BD + Tail (residues 402–598) (domain or fragment, C. elegans, N-terminal vector artifact left after TEV cleavage; LIN-42, C. elegans, residues 402-598 (CK1BD and C-terminal tail); numbers fit the longest isoform of 598 amino acids; also called wild-type LIN-42 CK1BD + Tail; source: E. coli Rosetta (DE3), purified (Ni-NTA, TEV cleavage, second Ni-NTA, SEC); not shown: His-NusA, N-terminal, cleaved) GAMDPEFLSYTQINCLENVHRLLKSQSRPESPAKQDEPFDEKKYPPQTPLTREALTLHTKRFEDEYKDTWCRRLKRLSDDVPSSPPAKRTTPIHWTSSSQNHYRTMAPAPPPPPGKNYQITYTPLDDLTDQKSTNTKSDVENVAYPISGSKFSTPMRLSIDGLLPRGATSTGGASPTSGTNSPPVFPKTSSSSSLLMLRDSQN	–	309
biotinylated LIN-42 CK1BD-∆A + Tail (residues 434–598) (domain or fragment, C. elegans, biotin on the N-terminus (Sortase A reaction of biotin-LPETGG with the N-terminal G of GAMDPEF), N-terminal vector artifact left after TEV cleavage; its first G is joined to the sortase peptide; LIN-42, C. elegans, residues 434-598: CK1BD + Tail without the SYQ/CK1BD-A motif; also called biotinylated CK1BD + Tail mutant, SYQ/CK1BD-A deleted; not shown: His-NusA, N-terminal, cleaved; biotin-LPETGG sortase peptide, N-terminal, kept) GAMDPEFDEKKYPPQTPLTREALTLHTKRFEDEYKDTWCRRLKRLSDDVPSSPPAKRTTPIHWTSSSQNHYRTMAPAPPPPPGKNYQITYTPLDDLTDQKSTNTKSDVENVAYPISGSKFSTPMRLSIDGLLPRGATSTGGASPTSGTNSPPVFPKTSSSSSLLMLRDSQN	binds	–
LIN-42 CK1BD-∆A + Tail (residues 434–598) (domain or fragment, C. elegans, N-terminal vector artifact left after TEV cleavage; LIN-42, C. elegans, residues 434-598: CK1BD + Tail without the SYQ/CK1BD-A motif; source: E. coli Rosetta (DE3), purified (Ni-NTA, TEV cleavage, second Ni-NTA, SEC); not shown: His-NusA, N-terminal, cleaved) GAMDPEFDEKKYPPQTPLTREALTLHTKRFEDEYKDTWCRRLKRLSDDVPSSPPAKRTTPIHWTSSSQNHYRTMAPAPPPPPGKNYQITYTPLDDLTDQKSTNTKSDVENVAYPISGSKFSTPMRLSIDGLLPRGATSTGGASPTSGTNSPPVFPKTSSSSSLLMLRDSQN	–	~3000
LIN-42 CK1BD (residues 402–475) (domain or fragment, C. elegans, N-terminal vector artifact left after TEV cleavage; LIN-42, C. elegans, residues 402-475 (SYQ/CK1BD-A and LT/CK1BD-B); numbers fit the longest isoform of 598 amino acids; also called truncated fragment of LIN-42 lacking the C-terminal tail; source: E. coli Rosetta (DE3), purified (Ni-NTA, TEV cleavage, second Ni-NTA, SEC); not shown: His-NusA, N-terminal, cleaved) GAMDPEFLSYTQINCLENVHRLLKSQSRPESPAKQDEPFDEKKYPPQTPLTREALTLHTKRFEDEYKDTWCRRLKRLSDDV	–	303
